Results from US20040116653A1 (JARROW FORMULAS, published 2004).
Ends that are not written are not given here.

Target: human CD4 on cells (MT-2, MT-4 cells; mouse SR.hCD4 cells transfected with human CD4) (human, UniProt P01730 26-458)
Test: cell-based or functional assay

Binder	EC50, inhibition of HIV-1IIIB replication in MT-4 cells (p24 ELISA, day 3) [µM]
SGPGTTKRFPETVLARCVKYTEIH (also: biotin conjugated in ELISA, site not given here) [synthetic soluble peptide corresponding to amino acids 51-74 of CD38 (CD3851-74)]	2.2
octameric branched peptide presenting the GPGTTK sequence (GPGTTK MBP) (Each of the eight arms is bound through its C-terminus (Lys 6) to an 8-branching lysine core (Map resin), which cannot be written as a linear chain. The peptide was conjugated with biotin for the rshCD4 ELISA; the site is not stated.) peptide 1: GPGTTK peptide 2: GPGTTK peptide 3: GPGTTK peptide 4: GPGTTK peptide 5: GPGTTK peptide 6: GPGTTK peptide 7: GPGTTK peptide 8: GPGTTK	4.3
